In the supplement of paper PMC10567573:
± gives the standard deviation.

Test: protein stability index of a GFP-peptide fusion (GPS, HEK-293T) (PSI 1-6); higher = more stable
[1] = treatment: DMSO, c terminus: a fixed tail appended
[2] = treatment: MLN4924 1 uM, 8 h, c terminus: a fixed tail appended
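Also: 24-mer peptide tiles fused after GFP, lentivirally expressed, FACS-sorted into six equal bins by GFP/DsRed ratio, decoded by Illumina sequencing, PSI is the read-weighted mean bin number.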

Sequence | protein stability index [1] | protein stability index [2] | protein stability index (treatment: DMSO, c terminus: native) | protein stability index (treatment: MLN4924 1 uM, 8 h, c terminus: native)
CTMEPEPVQPGMLIDVCKYLGSLQ [TRIM35] | 2.43 ± 0.13 | 2.41 ± 0.22 | – | –
RRLEAFEHPNVVRLMDVCATSRTD [CDK4] | 3.9 ± 0.13 | 3.91 ± 0.27 | – | –
DGSVRIWELREKQQLAAEPVPTGF [WDR41] | 3.87 ± 0.16 | 3.72 ± 0.32 | – | –
SYSTSEQAELSYKKVSEGPPLRLW [DLC1] | 2.73 ± 0.36 | 3.26 ± 0.18 | – | –
TNCQKVLNMWCCCFFKRRKRKTIQ [CSNK1G3] | 4.01 ± 0.26 | 3.77 ± 0.21 | – | –
ALVFGVNTFIALALQTLLTLIVVD [SLC19A2] | 3.33 ± 0.55 | 3.37 ± 0.58 | – | –
YNMAPSALDSADLPPPSALKKGSK [NFE2L1] | 5.26 ± 0.16 | 5.13 ± 0.3 | – | –
HFFALKVMSIPDVIRLKQEQHVHN [PRKX] | 2.25 ± 0.28 | 2.17 ± 0.1 | – | –
DGKSLVSVTKEGLELPEDEEEKKK [HSP90AB1] | 5.61 ± 0.2 | 5.44 ± 0.3 | – | –
SGRHPSHSTTPSGPGDEVARGIAG [ARFIP2] | 4.81 ± 0.13 | 4.62 ± 0.22 | – | –
KILEVVGRYSVHNAGISFSVKKQG [MLH1] | 2.19 ± 0.93 | 1.91 ± 0.51 | – | –
GLALGGGLELALACDIRVAASSAK [AUH] | 2.67 ± 0.4 | 2.9 ± 0.23 | – | –
KEHPDVQLLEDAILIIQGVLSDIN [NET1] | 2.49 ± 0.73 | 2.47 ± 0.23 | – | –
GPSEPGGTHPEDHQGHSDQHHHHH [RHOBTB2] | 5.65 ± 0.073 | 5.32 ± 0.24 | – | –
VQELLPAACLLQLKGVKQACCEFL [KLHL12] | 2.27 ± 0.28 | 1.81 ± 0.37 | – | –
SWARPRPDEERPLRRPRPVQRTQS [RASAL3] | 4.46 ± 0.36 | 4.57 ± 0.26 | – | –
ASLLQPVTPLGTSRWRKISAALPY [NCF4] | 2.46 ± 0.4 | 2.61 ± 0.3 | – | –
NKTWREQYLRLPDAPEQRLRVMTT [ELOA2] | 3.26 ± 0.31 | 3.19 ± 0.48 | – | –
AYACLVCGKYFQGRGLKSHAYIHS [USP39] | 2.29 ± 0.27 | 2.51 ± 0.52 | – | –
DLSAANEKNLLLQNQVDELERKFR [LRRC45] | 3.96 ± 0.38 | 4.08 ± 0.62 | – | –
KAGRRMFPACRVSVTGLDPEARYL [TBX6] | 2.36 ± 0.56 | 1.86 ± 0.2 | – | –
NGEYTLMPSPTDVVLPGAVSLRYS [ADAMTS4] | 3.23 ± 0.34 | 3.28 ± 0.41 | – | –

Sequence | protein stability index [1] | protein stability index [2] | protein stability index (treatment: DMSO, c terminus: native) | protein stability index (treatment: MLN4924 1 uM, 8 h, c terminus: native)
ELSSVHPPHYFFTYRIRIEMSKDA [FBXO3] | 2.15 ± 0.21 | 2.18 ± 0.42 | – | –
AALPLAAEETANLPPSPPPSPASE [MAP2] | 5.27 ± 0.13 | 5.09 ± 0.18 | – | –
ATFEKILESELLRGTQYSSLDSLD [PSD2] | 2.25 ± 0.23 | 2.41 ± 0.14 | – | –
AVTKDFKLTDKHETVVSYLPLSHI [ACSBG2] | 2.98 ± 0.075 | 3.08 ± 0.64 | – | –
QNPVLSKLLMADQDSPLDLTVRKS [LCOR] | 4.14 ± 0.27 | 4.25 ± 0.21 | – | –
LPNASADSLGGSQEMVQRPQPHRN [TRAF3IP2] | 5.25 ± 0.13 | 5.26 ± 0.16 | – | –
AAKRMRLEIYQSSQDEPIALDKQH [NOL4L] | 3.59 ± 0.27 | 3.88 ± 0.25 | – | –
TSDVYSSDAAFGGILERYWLSSRA [MYORG] | 2.62 ± 0.11 | 2.47 ± 0.092 | – | –
KYEQAFESSQKYKEGKYIIELNHM [YPEL3] | 2.71 ± 0.1 | 2.87 ± 0.2 | – | –
ELNAEKFKNSLLQKELKKAQMAKA [WEE1] | 4 ± 0.84 | 3.42 ± 0.4 | – | –
STHHGCEHICVNNGNSYICKCSEG [MATN2] | 5.16 ± 0.27 | 4.94 ± 0.23 | – | –
QVTCLRTQVLEDSEDSFCRRHPGL [TRAF3IP2] | 4.05 ± 0.2 | 4.08 ± 0.35 | – | –
SPMPYVKWMLGAEDLTPEDDMPIG [PTPRD] | 4.3 ± 0.26 | 4.17 ± 0.48 | – | –
LLPTLYEIHSKTTAYSRLNETQPI [RNF180] | 1.96 ± 0.15 | 2.15 ± 0.41 | – | –
EVCYEDLGCFSDTEPWGGTAIRPL [PNLIPRP1] | 3.18 ± 0.19 | 3.54 ± 0.66 | – | –
LALMIQSSGNTVLLLILCMQHSFP [TMEM192] | 2.9 ± 0.073 | 3.1 ± 0.48 | – | –
FHIMKRKFTNKEWETIRSFKDEWT [AASDHPPT] | – | 2.09 ± 0.16 | – | –
RAQLPKYQRNLPRPGQAPIGNPPV [ZNF207] | 3.75 ± 0.26 | 3.79 ± 0.14 | – | –
EPEDMETLEEKFSDVHPVALNFMK [CDKL4] | 4.68 ± 0.3 | 4.89 ± 0.19 | – | –
LVKKVEEDEAGGRFVAFSGEGQSL [UFD1] | 4.71 ± 0.14 | 4.81 ± 0.18 | – | –
YADHNYGARPPPTPPASPPPSVLI [KMT2E] | 3.06 ± 0.32 | 3.34 ± 0.4 | – | –
ILTLPEMMRMFSENLAHHLEIDSG [TRIM15] | 2.44 ± 0.3 | 2.44 ± 0.31 | – | –

Sequence | protein stability index [1] | protein stability index [2] | protein stability index (treatment: DMSO, c terminus: native) | protein stability index (treatment: MLN4924 1 uM, 8 h, c terminus: native)
KALEILRKDFSELRSAGVEQLMYI [FAM50A] | 2.55 ± 0.31 | 2.38 ± 0.49 | – | –
ARIAIRGTIKKIIHQETVSKNGNG [PCMTD2] | 3.01 ± 0.22 | 3.21 ± 0.27 | – | –
SGTVAAVLTLPFDVVKTQRQVALG [SLC25A39] | 2.15 ± 0.32 | 2.27 ± 0.3 | – | –
LIFHRHPVAQSTDAIRGKVGYTRG [SPSB1] | 2.33 ± 0.23 | 2.41 ± 0.21 | – | –
KTYQETPEIDMFLNVATFLDPRYK [ZBED1] | 2.38 ± 0.36 | 2.56 ± 0.32 | – | –
TAVAQAPPAVASSSLFDLSVLKLH [SERTAD1] | 3.17 ± 0.061 | 3.24 ± 0.2 | – | –
CEDQKQIKKPESFSKQIVLRGKSI [NEUROD6] | 4.7 ± 0.21 | 4.61 ± 0.21 | – | –
HGEEQRITIEPGTSYRLQGLKPNS [PTPRD] | 4.4 ± 0.18 | 4.67 ± 0.29 | – | –
SRSNGSSPEARDARSPSGPSGSLE [TRIM29] | 5.16 ± 0.17 | 5.29 ± 0.3 | – | –
RKPCKLMLQVVKILVVTVQLILFG [MCOLN1] | 2.44 ± 0.33 | 2.47 ± 0.32 | – | –
VQDWYHFHYVDILALLPAAWEDSH [SCNN1D] | 2.77 ± 0.61 | 2.67 ± 0.67 | – | –
LPWSSVLRVWDMFFCEGVKIIFRV [TBC1D10A] | 2.96 ± 0.72 | 3.34 ± 0.86 | – | –
RKAALEQDLAFWYGPRWQEVIPYT [HMOX1] | 2.33 ± 0.23 | 2.54 ± 0.39 | – | –
RNRLAATKCRKRKLERIARLEDKV [JUNB] | 3.78 ± 0.17 | 3.86 ± 0.12 | – | –
RVRPLARVTSLANLISPVRNGAVR [NET1] | 3.12 ± 0.17 | 3.2 ± 0.41 | – | –
LPTTKMAQTNPTPGSLGPWKITIY [CRYBA1] | 2.71 ± 0.48 | 2.19 ± 0.49 | – | –
TADRIIRVYDGREILTCGRDGEPE [RBBP5] | 4.55 ± 0.12 | 4.49 ± 0.31 | – | –
GKRPSQEEDTQSIGPKVQRQSTN [CRY1] | – | – | 5.35 ± 0.28 | 5.45 ± 0.11
PQDSGTAAWKGRVLLPETQKRQQL [C22orf31] | 4.44 ± 0.17 | 4.27 ± 0.29 | – | –
KLQDVFEMRFAKMPDEPVEAPALP [BRD3] | 3.49 ± 0.23 | 3.62 ± 0.34 | – | –
VDFTFVENVVHGHILAAEQLSRDS [NSDHL] | 2.37 ± 0.36 | 2.26 ± 0.4 | – | –
